Laboratory results: patent US20220259318A1 (Hoffmann-La Roche, published 2022)
Where “and” joins values, the source holds several entries; their conditions need not be identical. Equal values may be shown once. Read-outs that look alike come from different tables or passages of the source.

Experiments:
[1] = biological target: T1, human GPRC5D (human, UniProt Q9NZD1 1-345); assay: cell-based or functional assay
[2] = biological target: T1, human GPRC5D; assay: cell-based or functional assay; remark: listed apart in the source
[3] = biological target: T1, human GPRC5D; assay: cell ELISA, CHO hu GPRC5D (EC/IC50 rel)
Protocol: Stable transfected CHO clones expressing either human GPRCSD or cynomolgus GPRCSD or murine GPRCSD or human GPRCSA were used to analyze the binding of potential lead candidate antibodies as IgGs. In detail, 10⁴ cells (viability≥98%) were seeded into 384 well-microtiter plates (BD Poly D-Lysin, #356662, volume: 25 μl/well) using fresh culture medium. After overnight incubation at 37° C., 25 μl/well dilutions of antibodies were added (15×1:3 dilutions in 1×PBS, assay conc. starts at 30 μg/ml) to the cells for 2 hours at 4° C. After one washing step using 90 μl/well PBST (10×PBS, Roche, #11666789001+0.1% Tween 20), cells were subsequently fixed by the addition of 50 μl/well 0.05% glutaraldehyde (Sigma Cat. No: G5882 in 1×PBS) for 10 min at room temperature (RT). After three additional washing steps using 90 μl/well PBST, secondary antibodies were added for detection: for human antibodies goat anti-human Ig a chain antibody HRP conjugate (Millipore #AP502P) diluted 1:2000 in blocking buffer (1×PBS (Roche #11666789001)+2% BSA (Bovine Serum Albumin Fraction V, fatty acid free, Roche, #10735086001)+0.05% Tween 20) was used (25 μl/well). […] After incubation for 1 h at RT and three additional washing steps using 90 μl/well PBST, 25 μl/well TMB substrate was added (Roche order no. 11835033001) for 10 min and color development to final ODs was determined by measurement at 370 nm/492 nm.
For the characterization of the humanization variants of the VH and VL domains of the GPRC5D binders the ELISA protocol as described above was used (see Example 7). The data are summarized in the table 10 for the humanization variants of 5E11 and in table 11 for the humanization variants of 5F11.

[4] = biological target: T1, human GPRC5D; assay: cell-based or functional assay; remark: listed apart in the source
[5] = biological target: T1, human GPRC5D; assay: cell-based or functional assay; remark: listed apart in the source

T1 sequence (Q9NZD1 whole entry): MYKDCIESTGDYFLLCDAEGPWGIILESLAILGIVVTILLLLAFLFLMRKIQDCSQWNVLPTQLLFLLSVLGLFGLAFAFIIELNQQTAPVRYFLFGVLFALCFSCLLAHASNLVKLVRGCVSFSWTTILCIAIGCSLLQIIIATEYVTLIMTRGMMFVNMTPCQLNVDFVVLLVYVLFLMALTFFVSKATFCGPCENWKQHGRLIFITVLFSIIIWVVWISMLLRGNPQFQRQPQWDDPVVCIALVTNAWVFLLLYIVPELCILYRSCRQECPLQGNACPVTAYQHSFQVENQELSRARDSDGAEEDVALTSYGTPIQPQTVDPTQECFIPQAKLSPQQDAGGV

Binder | CAR-J2 EC50 [ng/mL] (PGLALA-CAR-J activation, L363 target cells) [2] | EC50 [3] | also measured
ET150-5-TCB (bispecific antibody, human IgG1, lambda, L234A L235A) light 1: QSVLTQPPSASGTPGQRVTISCSGSRSNVGGNYVFWYQQVPGATPKLLIYRSNQRPSGVPDRFAGSKSGSSASLAISGLRSEDEADYYCATWDDSLSGFVFGTGTKVTVLGQPKAAPSVTLFPPSSKKLQANKATLVCLISDFYPGAVTVAWKADSSPVKAGVETTTPSKQSNNKYAASSYLSLTPEQWKSHRSYSCQVTHEGSTVEKTVAPTECS light 2: EVQLLESGGGLVQPGGSLRLSCAASGFTFSTYAMNWVRQAPGKGLEWVSRIRSKYNNYATYYADSVKGRFTISRDDSKNTLYLQMNSLRAEDTAVYYCVRHGNFGNSYVSWFAYWGQGTLVTVSSASVAAPSVFIFPPSDEQLKSGTASVVCLLNNFYPREAKVQWKVDNALQSGNSQESVTEQDSKDSTYSLSSTLTLSKADYEKHKVYACEVTHQGLSSPVTKSFNRGEC heavy 1: EVQLVESGGGLVKPGGSLRLSCAASGFTFSDYYMSWIRQAPGKGLEWVSYISSSGSTIYYADSVKGRFTISRDNAKNSLYLQMNSLRAEDTAVYYCARGYGKAYDQWGQGTLVTVSSASTKGPSVFPLAPSSKSTSGGTAALGCLVEDYFPEPVTVSWNSGALTSGVHTFPAVLQSSGLYSLSSVVTVPSSSLGTQTYICNVNHKPSNTKVDEKVEPKSCDKTHTCPPCPAPEAAGGPSVFLFPPKPKDTLMISRTPEVTCVVVDVSHEDPEVKFNWYVDGVEVHNAKTKPREEQYNSTYRVVSVLTVLHQDWLNGKEYKCKVSNKALGAPIEKTISKAKGQPREPQVCTLPPSRDELTKNQVSLSCAVKGFYPSDIAVEWESNGQPENNYKTTPPVLDSDGSFFLVSKLTVDKSRWQQGNVFSCSVMHEALHNHYTQKSLSLSPGK heavy 2: not shown | – | – | EC50 of anti-GPRC5D-TCB mediated killing, AMO-1 [1]: 0.0835 nM; EC50 of anti-GPRC5D-TCB mediated killing, L363 [1]: 0.768 nM; EC50 of anti-GPRC5D-TCB mediated killing, NCI-H929 [1]: 0.833 nM; EC50 of anti-GPRC5D-TCB mediated killing, RPMI-8226 [1]: 0.797 nM
P1AE5714 (antibody, V domains shown, Humanized 5E11 IgG; PGLALA Fc implied by the CAR-J assay; also called 5E11_VH1b + 5E11_VL1a) VH: ELQLLESGGGLVQPGGSLRLSCAASGFTFSKYAMAWVRQAPGKGLEWVASISTGGVNTYYRDSVKARFTISRDNAKNTLYLQMNSLRAEDTAVYYCATHTGDYFDYWGQGTMVTVSS VL: DIVMTQSPDSLAVSLGERATINCRASQSVSISGINLMNWYQQKPGQQPKLLIYHASILASGVPDRFSGSGSGTDFTLTISSLQAEDVAVYYCQQTRESPLTFGQGTRLEIK | 5.5 | 0.0129 µg/mL and 0.09 nM | –
P1AE5719 (antibody, V domains shown, Humanized 5E11 IgG; PGLALA Fc implied by the CAR-J assay; also called 5E11_VH1b + 5E11_VL3b) VH: ELQLLESGGGLVQPGGSLRLSCAASGFTFSKYAMAWVRQAPGKGLEWVASISTGGVNTYYRDSVKARFTISRDNAKNTLYLQMNSLRAEDTAVYYCATHTGDYFDYWGQGTMVTVSS VL: DIQMTQSPSSLSASVGDRVTITCRASQSVSISGINLMNWYQQKPGQQPKLLIYHASILASGVPSRFSGSGSGTDFTLTISSLQPEDFATYYCQQTRESPLTFGQGTRLEIK | 2.8 | 0.0166 µg/mL and 0.11 nM | –
P1AE5712 (antibody, V domains shown, Humanized 5E11 IgG; PGLALA Fc implied by the CAR-J assay; also called 5E11_VH1a + 5E11_VL3a) VH: EVQLLESGGGLVQPGGSLRLSCAASGFTFSKYAMAWVRQAPGKGLEWVASISTGGVNTYYRDSVKARFTISRDNSKNTLYLQMNSLRAEDTAVYYCATHTGDYFDYWGQGTMVTVSS VL: DIQMTQSPSSLSASVGDRVTITCRASQSVSISGINLMNWYQQKPGKQPKLLIYHASILASGVPSRFSGSGSGTDFTLTISSLQPEDFATYYCQQTRESPLTFGQGTRLEIK | 16.1 | 0.0131 µg/mL and 0.09 nM | –
P1AE5725 (antibody, V domains shown, Humanized 5E11 IgG; PGLALA Fc implied by the CAR-J assay; also called 5E11_VH1c + 5E11_VL3b) VH: EVQLLESGGGLVQPGGSLRLSCAASGFTFSKYAMAWVRQAPGKGLEWVASISTGGVNTYYADSVKGRFTISRDNSKNTLYLQMNSLRAEDTAVYYCATHTGDYFDYWGQGTMVTVSS VL: DIQMTQSPSSLSASVGDRVTITCRASQSVSISGINLMNWYQQKPGQQPKLLIYHASILASGVPSRFSGSGSGTDFTLTISSLQPEDFATYYCQQTRESPLTFGQGTRLEIK | 10.9 | 0.0051 µg/mL and 0.03 nM | –
P1AE5724 (antibody, V domains shown, Humanized 5E11 IgG; PGLALA Fc implied by the CAR-J assay; also called 5E11_VH1c + 5E11_VL3a) VH: EVQLLESGGGLVQPGGSLRLSCAASGFTFSKYAMAWVRQAPGKGLEWVASISTGGVNTYYADSVKGRFTISRDNSKNTLYLQMNSLRAEDTAVYYCATHTGDYFDYWGQGTMVTVSS VL: DIQMTQSPSSLSASVGDRVTITCRASQSVSISGINLMNWYQQKPGKQPKLLIYHASILASGVPSRFSGSGSGTDFTLTISSLQPEDFATYYCQQTRESPLTFGQGTRLEIK | 3.6 | 0.0053 µg/mL and 0.04 nM | –
P1AE5731 (antibody, V domains shown, Humanized 5E11 IgG; PGLALA Fc implied by the CAR-J assay; also called 5E11_VH1d + 5E11_VL3b) VH: ELQLLESGGGLVQPGGSLRLSCAASGFTFSKYAMAWVRQAPGKGLEWVASISTGGVNTYYADSVKGRFTISRDNAKNTLYLQMNSLRAEDTAVYYCATHTGDYFDYWGQGTMVTVSS VL: DIQMTQSPSSLSASVGDRVTITCRASQSVSISGINLMNWYQQKPGQQPKLLIYHASILASGVPSRFSGSGSGTDFTLTISSLQPEDFATYYCQQTRESPLTFGQGTRLEIK | 2.3 | 0.0052 µg/mL and 0.03 nM | –
P1AE5721 (antibody, V domains shown, Humanized 5E11 IgG; PGLALA Fc implied by the CAR-J assay; also called 5E11_VH1c + 5E11_VL1c) VH: EVQLLESGGGLVQPGGSLRLSCAASGFTFSKYAMAWVRQAPGKGLEWVASISTGGVNTYYADSVKGRFTISRDNSKNTLYLQMNSLRAEDTAVYYCATHTGDYFDYWGQGTMVTVSS VL: DIVMTQSPDSLAVSLGERATINCKSSQSVSISGINLMNWYQQKPGQQPKLLIYHASILASGVPDRFSGSGSGTDFTLTISSLQAEDVAVYYCQQTRESPLTFGQGTRLEIK | 25 | 0.0183 µg/mL and 0.12 nM | –
P1AE5720 (antibody, V domains shown, Humanized 5E11 IgG; PGLALA Fc implied by the CAR-J assay; also called 5E11_VH1c + 5E11_VL1a) VH: EVQLLESGGGLVQPGGSLRLSCAASGFTFSKYAMAWVRQAPGKGLEWVASISTGGVNTYYADSVKGRFTISRDNSKNTLYLQMNSLRAEDTAVYYCATHTGDYFDYWGQGTMVTVSS VL: DIVMTQSPDSLAVSLGERATINCRASQSVSISGINLMNWYQQKPGQQPKLLIYHASILASGVPDRFSGSGSGTDFTLTISSLQAEDVAVYYCQQTRESPLTFGQGTRLEIK | 6.3 | 0.0217 µg/mL and 0.14 nM | –
P1AE5727 (antibody, V domains shown, Humanized 5E11 IgG; PGLALA Fc implied by the CAR-J assay; also called 5E11_VH1d + 5E11_VL1c) VH: ELQLLESGGGLVQPGGSLRLSCAASGFTFSKYAMAWVRQAPGKGLEWVASISTGGVNTYYADSVKGRFTISRDNAKNTLYLQMNSLRAEDTAVYYCATHTGDYFDYWGQGTMVTVSS VL: DIVMTQSPDSLAVSLGERATINCKSSQSVSISGINLMNWYQQKPGQQPKLLIYHASILASGVPDRFSGSGSGTDFTLTISSLQAEDVAVYYCQQTRESPLTFGQGTRLEIK | 6.3 | 0.0087 µg/mL and 0.06 nM | –
P1AE5715 (antibody, V domains shown, Humanized 5E11 IgG; PGLALA Fc implied by the CAR-J assay; also called 5E11_VH1b + 5E11_VL1c) VH: ELQLLESGGGLVQPGGSLRLSCAASGFTFSKYAMAWVRQAPGKGLEWVASISTGGVNTYYRDSVKARFTISRDNAKNTLYLQMNSLRAEDTAVYYCATHTGDYFDYWGQGTMVTVSS VL: DIVMTQSPDSLAVSLGERATINCKSSQSVSISGINLMNWYQQKPGQQPKLLIYHASILASGVPDRFSGSGSGTDFTLTISSLQAEDVAVYYCQQTRESPLTFGQGTRLEIK | 3.6 | 0.0211 µg/mL and 0.14 nM | –
P1AE5726 (antibody, V domains shown, Humanized 5E11 IgG; PGLALA Fc implied by the CAR-J assay; also called 5E11_VH1d + 5E11_VL1a) VH: ELQLLESGGGLVQPGGSLRLSCAASGFTFSKYAMAWVRQAPGKGLEWVASISTGGVNTYYADSVKGRFTISRDNAKNTLYLQMNSLRAEDTAVYYCATHTGDYFDYWGQGTMVTVSS VL: DIVMTQSPDSLAVSLGERATINCRASQSVSISGINLMNWYQQKPGQQPKLLIYHASILASGVPDRFSGSGSGTDFTLTISSLQAEDVAVYYCQQTRESPLTFGQGTRLEIK | 37.8 | 0.0076 µg/mL and 0.05 nM | –
5F11_P1AE5741 (antibody, V domains shown, Humanized 5F11 IgG; PGLALA Fc implied by the CAR-J assay; also called 5F11_VH1b + 5F11_VL2a) VH: EVQLVESGGGVVQPGRSLRLSCAASGFSFSNYGMAWVRQAPGKGLEWVASISTGGGNTYYRDSVKGRFTISRDNAKNTLYLQMNSLRAEDTAVYYCTRHDRGGLYWGQGTMVTVSS VL: DIVMTQSPLSLPVTPGEPASISCRSSKSLLHSNGITYVYWYLQKPGQSPQLLIYRMSNRASGVPDRFSGSGSGTDFTLKISRVEAEDVGVYHCGQLLENPYTFGQGTKLEIK | – | 0.0067 µg/mL and 0.04 nM | CAR-J2 EC50 [ng/mL] (PGLALA-CAR-J activation, L363 target cells) [4]: 1.4 ng/mL; EC50 values of CAR-J activation [5]: 1.4 ng/mL
5F11_P1AE5745 (antibody, V domains shown, Humanized 5F11 IgG; PGLALA Fc implied by the CAR-J assay; also called 5F11_VH1c + 5F11_VL1b) VH: QVQLVESGGGVVQPGRSLRLSCAASGFSFSNYGMAWVRQAPGKGLEWVASISTGGGNTYYADSVKGRFTISRDNSKNTLYLQMNSLRAEDTAVYYCTRHDRGGLYWGQGTMVTVSS VL: DIVMTQSPLSLPVTPGEPASISCRSSKSLLHSNGITYVYWYLQKPGKSPQVLIYRMSNLASGVPDRFSGSGSGTDFTLKISRVEAEDVGVYHCGQLLENPYTFGQGTKLEIK | – | 0.0097 µg/mL and 0.06 nM | CAR-J2 EC50 [ng/mL] (PGLALA-CAR-J activation, L363 target cells) [4]: 1.62 ng/mL; EC50 values of CAR-J activation [5]: 1.62 ng/mL
